# B1: BglF3 (Flavobacterium johnsoniae UW101) (protein)
# chain: KNKMIYLSAALVFAFFTSCKNETQTSASNSSQTEEYVGKEISTDHDAEIDKLISQMTLEEKIGMLHGNSMFANAGVKRLGIPELKMADGPLGVREEISRDNWAPAGWTNDFATYYPAGGALAATWNAEMAHTFGTSLGEELRARDKDMLLSPAINMVRTPLGGRTYEYMSEDPFLNKKIAVPLVVGLQEKDVMACVKHYAANNQETNRDFVDVQIDERTLREIYLPAFEATVKEAKAYSIMGAYNKFRGEYLCENDYMLNKILRDEWGFKGVVVSDWAAVHSTAKSLKNGLDIEMGTPKPFNEFFLADKLIAAVKSGEVSEKEIDLHVKRILRVLFQVKAMGGGERAKGSIATEAHYQDAYKIAAEAIILLKNENNALPLKLDGVKSIAVIGNNATKKNALGGFGAGVKTKREVTPLEGLKNRLPSSVKINYAEGYLEKYEEKNKGNLGNITSTGPVTIDKLDPAKVQEAVEAAKKSDVAIIFAGSNRDYETEASDRRDLHLPFGQEELIKKVIEANPKTIVVMIAGAPFDLNEVSQKSSALVWSWFNGSEGGNALADVILGKVNPSGKLPWTMPKQLKDSPAHATNSFPGDKAVNYAEGILIGYRWFDTKNVAPLYPFGYGLSYTTFALDNAKTDKDSYAQNDVIEVTVDVKNTGKVDGKEVVQLYTSKSDSKITRAAQELKGFKKADVKAGGSEKITIKVPVKELAYYDVAAKKWTVEPGKYTIKLGTSSRDIKKEINFTIK
# Substrate: O=[N+]([O-])c1ccc(O[C@@H]2O[C@H](CO)[C@@H](O)[C@H](O)[C@H]2O)cc1
# Assay: purified protein
# Settings: pH 6.0 sodium phosphate 50 mM, 37 °C, 0.1-5 mM substrate
protein,measurement,value
B1,Km,910 ± 20 µM

# From PMC3659600
